As a reminder, the pKd is the negative decadic logarithm of the Kd, by convention in mol/L.

pKd: −log10 of the molar value.

Some targets named below: HLA-A*03:01; HLA-A*11:01; HLA-A*31:01; HLA-A*68:01; HLA-A*33:01.
Experiment in all cases: IEDB peptide-MHC binding, purified MHC/competitive/radioactivity; filed as Kd, often an IC50 or EC50 that approximates it; ≥ and ≤ were set here for values at or beyond the usual limits of such assays
The mark [1] stands for this setting: source organism: Dengue virus 4 Philippines/H241/1956.
The mark [2] stands for this setting: source organism: Vaccinia virus WR.
[3] abbreviates: source organism: Dengue virus 2 Jamaica/1409/1983.
[4] abbreviates: source organism: Lassa virus Josiah.
Setting [5] is: source organism: Dengue virus 4 Dominica/814669/1981.
[6] abbreviates: source organism: SARS coronavirus Tor2.
[7] abbreviates: source organism: Dengue virus 1 Singapore/S275/1990.
[8] abbreviates: source organism: Dengue virus 3 Martinique/1243/1999.
Where [9] appears, read: source organism: Murray valley encephalitis virus (strain MVE-1-51).
Where [10] appears, read: source organism: Mammarenavirus guanaritoense.

Turning to GLSSRATWAK, the pKd with HLA-A*03:01 (setting [1]) was 7.45; with HLA-A*11:01 (setting [1]), 6.79.

Regarding GSQLAKRFSR, the pKd in the test with HLA-A*31:01 (source organism: Dengue virus 3 Singapore/8120/1995) was 7.26.

As to GTSNWTGNY, the pKd with HLA-A*68:01 (setting [2]) is 5.43; in the test with HLA-A*33:01 (setting [2]), at most 4.11; with HLA-A*03:01 (setting [2]), 7.94; with HLA-A*11:01 (setting [2]), 8.97; in the test with HLA-A*31:01 (setting [2]), at most 4.11.

As to GVFTTNIWLK, the figures for the pKd with HLA-A*68:01 (setting [3]), with HLA-A*03:01 (setting [3]) and with HLA-A*11:01 (setting [3]) were 8.84, 7.53 and 7.39, respectively.

In the case of HLKVALYRR, the pKd with HLA-A*68:01 (setting [2]) was 7.17; with HLA-A*33:01 (setting [2]) it was 8.01; with HLA-A*03:01 (setting [2]) it was 5.92; with HLA-A*11:01 (setting [2]), 5.02; with HLA-A*31:01 (setting [2]), 9.71.

Take HSVFKGFSDK: the negative-log Kd (pKd) is 7.28 with HLA-A*68:01 (setting [2]); 4.84 with HLA-A*33:01 (setting [2]); 7.94 with HLA-A*03:01 (setting [2]); 7.87 in the test with HLA-A*11:01 (setting [2]); 5.85 in the test with HLA-A*31:01 (setting [2]).

As for ICKMPLPTK, the pKd in the test with HLA-A*68:01 (setting [4]) is 4.76; with HLA-A*33:01 (setting [4]) it was at most 4.32; with HLA-A*03:01 (setting [4]) it was 6.05; with HLA-A*11:01 (setting [4]), 6.15; with HLA-A*31:01 (setting [4]), 4.70.

As for IGKMFESTYR, the pKd in the test with HLA-A*33:01 (setting [5]) is 6.75.

With IICEDAMYY, the pKd was 5.44 with HLA-A*68:01 (setting [2]); at most 4.11 in the test with HLA-A*33:01 (setting [2]); 5.63 in the test with HLA-A*03:01 (setting [2]); 6.71 in the test with HLA-A*11:01 (setting [2]); at most 4.21 with HLA-A*31:01 (setting [2]).

For IIMRCWLCWK, the pKd with HLA-A*68:01 (setting [6]) is 9.04; in the test with HLA-A*33:01 (setting [6]) it was 6.70; with HLA-A*03:01 (setting [6]) it was 8.78; with HLA-A*11:01 (setting [6]), 9.37; in the test with HLA-A*31:01 (setting [6]) it was 7.84.

In the case of ILARWGSFKK, the pKd in the test with HLA-A*03:01 (setting [7]) is 8.01.

As to ILHAYCGIK, the pKd is 5.73 with HLA-A*68:01 (setting [2]); at most 4.47 with HLA-A*33:01 (setting [2]); 7.48 with HLA-A*03:01 (setting [2]); 6.24 with HLA-A*11:01 (setting [2]); 5.58 in the test with HLA-A*31:01 (setting [2]).

For the sequence ILSYIYSEIK, the pKd is 5.91 in the test with HLA-A*68:01 (setting [2]); at most 4.15 with HLA-A*33:01 (setting [2]); 7.41 in the test with HLA-A*03:01 (setting [2]); 7.21 with HLA-A*11:01 (setting [2]); at most 4.43 in the test with HLA-A*31:01 (setting [2]).

For ILTYNKTSK, the pKd with HLA-A*68:01 (setting [2]) was 6.35; in the test with HLA-A*33:01 (setting [2]), at most 4.70; in the test with HLA-A*03:01 (setting [2]), 7.34; with HLA-A*11:01 (setting [2]) it was 5.90; with HLA-A*31:01 (setting [2]), 5.79.

Consider KAKIFTPEAR, for which the pKd with HLA-A*31:01 (setting [5]) is 8.55.

For the sequence KSDAKRNSK, the negative logarithm of the Kd (pKd) with HLA-A*68:01 (setting [2]) is at most 4.11; with HLA-A*33:01 (setting [2]), at most 4.11; with HLA-A*03:01 (setting [2]), 5.94; with HLA-A*11:01 (setting [2]) it was 6.05; with HLA-A*31:01 (setting [2]), 5.73.

As for KVTEVRGYTK, in the test with HLA-A*11:01 (setting [8]), the pKd was 6.70.

As for LFCLLNRYFR, the pKd with HLA-A*68:01 (setting [6]) was 6.60; in the test with HLA-A*33:01 (setting [6]) it was 7.44; with HLA-A*03:01 (setting [6]), 5.91; with HLA-A*11:01 (setting [6]) it was 6.26; in the test with HLA-A*31:01 (setting [6]) it was 7.89.

Regarding LFKRERDAIK, the pKd with HLA-A*68:01 (setting [2]) is at most 4.45; with HLA-A*33:01 (setting [2]) it was 5.08; with HLA-A*03:01 (setting [2]), at most 4.52; in the test with HLA-A*11:01 (setting [2]), at most 4.16; with HLA-A*31:01 (setting [2]) it was 5.84.

As for LFVKKMLPK, the negative-log Kd (pKd) is 6.33 in the test with HLA-A*68:01 (setting [2]); at most 4.48 in the test with HLA-A*33:01 (setting [2]); 5.82 in the test with HLA-A*03:01 (setting [2]); 6.62 with HLA-A*11:01 (setting [2]); 5.84 with HLA-A*31:01 (setting [2]).

As to LISGKGIGK, the pKd in the test with HLA-A*03:01 (setting [8]) is 6.14.

On to LMCHATFTMR, for which the values for the pKd with HLA-A*33:01 (setting [3]) and with HLA-A*31:01 (setting [3]) were 7.05 and 8.14, respectively.

Consider MANEMGFLEK, for which, in the test with HLA-A*11:01 (setting [3]), the pKd is 6.28.

With MILLTMKNK, the pKd was 7.30 with HLA-A*03:01 (setting [8]) and 5.92 with HLA-A*11:01 (setting [8]).

Turning to MLVAPSYGMR, in the test with HLA-A*68:01 (setting [1]), the pKd was 8.12.

For the sequence MPSMKRFRR, the negative-log Kd (pKd) with HLA-A*33:01 (setting [3]) was 8.17.

On to MSAAVKDER, for which the pKd with HLA-A*68:01 (setting [8]) was 7.13; with HLA-A*31:01 (setting [8]) it was 7.49.

Consider MVTFKVPHAK, for which the pKd with HLA-A*68:01 (setting [1]) is 6.88; with HLA-A*03:01 (setting [1]), 7.10; with HLA-A*11:01 (setting [1]) it was 6.60.

Consider NMISRMLINR, for which the figures for the pKd with HLA-A*68:01 (setting [3]), with HLA-A*33:01 (setting [3]) and with HLA-A*31:01 (setting [3]) were 6.86, 8.15 and 7.74, respectively.

For RWLWGFLSR, the pKd with HLA-A*31:01 (setting [7]) is 8.84.

In the case of SLRTTTVSGK, the pKd with HLA-A*03:01 (setting [8]) is 8.24.

In the case of SSMINGVVK, the pKd in the test with HLA-A*11:01 (setting [8]) was 7.89.

Take TIGTTHFQR: the pKd with HLA-A*68:01 (setting [3]) was 7.74; in the test with HLA-A*31:01 (setting [3]) it was 7.84.

In the case of TLFVEECLR, the pKd with HLA-A*68:01 (setting [1]) is 7.52; with HLA-A*33:01 (setting [1]), 7.06.

Regarding TTAKEVALLR, the pKd in the test with HLA-A*68:01 (setting [1]) was 7.13.

For the sequence VASAGISYK, the figures for the pKd with HLA-A*03:01 (setting [1]) and with HLA-A*11:01 (setting [1]) were 7.55 and 7.43, respectively.

Take VQTKPGIFK: the pKd is 6.56 in the test with HLA-A*03:01 (setting [9]) and 6.36 with HLA-A*11:01 (setting [9]).

For VTEFRRTAIH, the pKd is 4.82 with HLA-A*68:01 (setting [10]), 5.23 with HLA-A*33:01 (setting [10]), at most 4.48 in the test with HLA-A*03:01 (setting [10]) and 4.97 with HLA-A*31:01 (setting [10]).

Regarding WTLMYFHRR, the pKd was 8.18 with HLA-A*33:01 (setting [3]) and 8.83 in the test with HLA-A*31:01 (setting [3]).

The record behind these values is the Immune Epitope Database (IEDB).
